The text below walks through data of publication PMC7407982, “Troponin Aptamer on an Atomically Flat Au Nanoplate Platform for Detection of Cardiac Troponin I”.

One data set concerns the target troponin complex (UniProt P19429+P63316+P45379). The following applies: 3'-(CH2)6-SH thiol; SERS sandwich: 300 mM NaCl, 20 mM Tris-HCl, 0.5 mM beta-mercaptoethanol, 20% (w/v) glycerol, 0.05% Tween 20, pH 8.0 (or with 20% human serum), 35 °C, 6 h, then …; cited from earlier work.
In data set [1] the target is cardiac troponin I (cTnI) (UniProt P19429 2-210). In words: SERS sandwich on Au nanoplate; AFM; sandwich with reporter N2; detected from 100 aM in buffer, 100 fM in 20% human serum; AFM capture at 10 pM; SERS sandwich: 300 mM NaCl, 20 mM Tris-HCl, 0.5 mM beta-mercaptoethanol, 20% (w/v) glycerol, 0.05% Tween 20, pH 8.0 (or with 20% human serum), 35 °C, 6 h, then.

With “CGCATGCCAAACGTTGCCTCATAGTTCCCTCCCCGTGTCC [Probe aptamer]”, in the data set with troponin complex, the Kd was 3.37 nM.
Take “CGTGCAGTACGCCAACCTTTCTCATGCGCTGCCCCTCTTA [Reporter aptamer]”: the Kd with troponin complex is 3.1 nM.

B1: Probe aptamer (ssDNA)
DNA: CGCATGCCAAACGTTGCCTCATAGTTCCCTCCCCGTGTCC
modifications: 3'-(CH2)6-SH thiol
For the molecule B1, the binding result in data set [1] is listed as “binds”.
